Assay: label from the status in PepcDB records
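Also: failed if final PepcDB status was selected cloned or expressed and not failed if soluble or beyond.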

Question: For “MSESVNKKITDGNYDKTLAVKCVNGTFVGKKTEGVIAYKGIPFVGQQPVGKLRWKAPVDVTPSNDVYEAYNYEKAPVQAPGDPAIENGMGEDCLYLNIWRADETVTEKKPVIVWIYGGGFEVGGTSDPQYDCHSLVKENPDVILVSLAYRVSFFGFMHLSHLSDGKDYQDAPNLGLLDQLMGLKWVHENIANFGGDPDNVTIWGESAGGASVTLLPLIKGSHQYFKRVIAQSGAPAQTRSEEQAIAITDHVMKELGCKTVADLLKVSAQEFADTWARLYGFYQVLGIRTFPERDGRCLPLNPWEAYANGAAKDITFLQGCNKDEMNTFLGSIGVDRWNAWANQRKAEKLIQLTDEEKALVESYCNDIQGESYEPTVRLFSQIMFQVPQIRLSEEQTKGGGKSYTYLFTPESSVPLIKCGHITELSALFNHPEITAFTGRAYDETFCKTMRKMWIQFAKTGNPSLTAEMSPDGKAKEWPLYDTEKKVMVLDEQNIHPAKESELKIVDWERTYFLTNYYMP”, which protein production is on record?
Answer: failed

Question: Which protein production does the source give for “MSFALGQRWISDTESDLGLGTVVALDARTVTLMFAASEENRVYARSDAPVTRVIFNVGDVVDSQQGWSLQVEQVVEDQGVYTYLGTRVDTEESGVALREIFLSNQIRFNKPQDKLFAGQIDRMDNFVLRY” here?
Answer: not failed

Question: Which protein production does the source give for “MSFDRPEIYSAPVLQGESPNDDDNTEIIKSFKNFILEFRLDSQFIYRDQLRNNILVKNYSLTVNMEHLIGYNEDIYKKLSDEPSDIIPLFETAITQVAKRISILSRAQSANNNDKDPENTSMDTDSLLLNSLPTFQLILNSNANQIPLRDLDSEHVSKIVRLSGIIISTSVLSSRATYLSIMCRNCRHTTSITINNFNSITGNTVSLPRSCLSTIESESSMANESNIGDESTKKNCGPDPYIIIHESSKFIDQQFLKLQEIPELVPVGEMPRNLTMTCDRYLTNKVIPGTRVTIVGIYSIYNSKNGAGSGRSGGGNGGSGVAIRTPYIKILGIQSDVETSSIWNSVTMFTEEEEEEFLQLSRNPKLYEILTNSIAPSIFGNEDIKKAIVCLLMGGSKKILPDGMRLRGDINVLLLGDPGTAKSQLLKFVEKVSPIAVYTSGKGSSAAGLTASVQRDPMTREFYLEGGAMVLADGGVVCIDEFDKMRDEDRVAIHEAMEQQTISIAKAGITTVLNSRTSVLAAANPIYGRYDDLKSPGDNIDFQTTILSRFDMIFIVKDDHNEERDISIANHVINIHTGNANAMQNQQEENGSEISIEKMKRYITYCRLKCAPRLSPQAAEKLSSNFVTIRKQLLINELESTERSSIPITIRQLEAIIRITESLAKLELSPIAQERHVDEAIRLFQASTMDAASQDPIGGLNQASGTSLSEIRRFEQELKRRLPIGWSTSYQTLRREFVDTHRFSQLALDKALYALEKHETIQLRHQGQNIYRSGV” here?
Answer: failed

Question: For “MSFEAFTELYIRDVKTRLKENTWLTKEHIIRTKILPYFGKLRISEISTKEIITWQNELLAYRDEKKKPYSQTYLKTLHNQLSAIFNHAVRYYELRSNPAAKVGNMGSE”, which protein production is on record?
Answer: failed

Question: Which protein production does the source give for “MSFFNKIILIGRLVRDPEERYTLSGTPVTTFTIAVDRVPRKNAPDDAQTTDFFRIVTFGRLAEFARTYLTKGRLVLVEGEMRMRRWETPTGEKRVSPEVVANVVRFMDRKPAETVSETEEELEIPEEDFSSDTFSEDEPPF” here?
Answer: not failed

Question: For “MSFGNEKGQDIIHRKEVEFFVKNLKDYFSNINKYVVILWDEEGIILEFKENGGNLLGYTPEQIEGKKWPDILTDGKDKEQTTEINKKLVNSKIVRYYINSIKDVNGTSKIFLWCNLKLENVQSDKKIFLSVGFNLDSIDNLKEKTDESKFELDTLNEKKENLEFKVTKDDLILKQKDDTIRDYKSKLEFLAFYDELTGLPNKNSLIRWLNLKVSQMDCIDTYLIFLEVRDLEKLNVTYGYDLVDELIIHISKRIKDIAGEGNKAFKIGFDRFAIICKSENISDFIERMLSQLLLPYNVNGNLIRVNFNIGAAQIENSNEAAANLMRRCDLALIKAKEEGLNEYVIFKPSIEIQTLKEGILERELRNGIELNEFIVFYQPFVKLENDKICGFEALLRWYYLKSVFVSPLEFIPVAEKYGLIIDLGNMVLKQSLKAGKILKKYYDDEFTISINISPKQFIDKRFVKNTIEILENEKLQDIRLRFEITEKVAIENIDYTIRIMNEFKKYNVTFALDDFGVEYSSLNYLRKLPIEAVKIDKSFVQDINDHDTYFIVETIVKLCKKLNLKTVIEGVETQRQYQIIKELGCDYAQGYFIAKPLPINELINLVGKYKILE”, which protein production is on record?
Answer: failed

Question: For “MSFKNDHKYQWKDMQGKDFLLPFIYLIGNFCLSIVILTIMIGINETQGKNNANFNANFSGTPGILMEMIAFIIIFALWILFHRHSFRQSWKQGLQNIKQHWKLIVITFIVIIVFKEIYPYLVNAFAPEHWKFEETQNDKMVEEMFATPVSTILAFFSIVIIAPMTEEFLFRHLIIGELGKKLNFYVMSVISIIVFASLHVTEAKSPLEIVMYLAIAVGIVYVYMKSQRSLAVAIALHALNNLLAYIFMIIM”, which protein production is on record?
Answer: failed

Question: Which protein production does the source give for “MSFSTEIEVRFKHCDPAGIVFFPRYFEMINDVVEDWFANDLGCPFHELVKENGAPTAQIQARFTAPSLHGDVLSFRLTPTRIGNSSLDYDLTAHCGDELRLRATATLVHVARLGRSQPWPQAIRERVAAQIDSALEHHHHHH” here?
Answer: failed

Question: With “MSFVECPYHSPAERLVAEADEGGPSAITGMGLCFRCLLFSFSGRSGVEGGRVDLNVFGSLGLQPWIGSSRCWGGPCSSALRCGWFSSWPPPSKSAIPIGGGSRGAGRVSRWPPPHWLEAWRVSPRPLSPLSPATFGRGFIAVAVIPGLWARGRGCSSDRL” as the sequence, how does the protein production read?
Answer: failed

Question: For “MSFVTTQPEALAAAAANLQGIGTTMNAQNAAAAAPTTGVVPAAADEVSALTAAQFAAHAQMYQTVSAQAAAIHEMFVNTLVASSGSYAATEAANAAAAG”, which protein production is on record?
Answer: failed

Question: For “MSFYVVVGAGPVGRETARLLGEEGHDVVLTSRSVGSNALPNVRTVQADATDASELSRICRGADAIFMCAMAAYHRWPTDFFPIIDGTVRAAEAVGAKLIVLGNLYGYGENADSPLRSDLPLDPTSRKGTARTIMWQRAVRAGIPAIEIRSSDYLGHGAISYFSLIALPAIIEGKPTAFIGDLDATHAWAFTKDVARTLVAAALYKGEWGRAFHVPSQYASPRELIQKAAAMLGQEVSGTLSYSVPEIEALGMHEAIEMSYLFEKPLLVDASDTEALLGVKASSLEEMIADTLRDHL”, which protein production is on record?
Answer: failed

Question: For “MSGDILNDIVAACLELERKASSVFKMFAAHAGSDEARRFWETVADETRHHSAVYERLQERGGRENLPIIIYKPAETLEELEMIGKSIDEQVERYTEAPSSEAACLLGFRLQLYLLHPAFASLCRLTRDASGEDLPDIGYGRYLRRFIDGIGSCGLATAETELLGEALFRLWNEARQLAAQSHFDALTGVMTRAGFFKTVGSLAYAAQRSGSNVGIMLIDLDYFKLVGDNYGHQTGDRILQLVAETITSHLRRSDVVGRYDGDEFVVYLSPVEPASLRTVAENLRRSIEEESARMVPVTASIGVAQGILGTDVDGGIEELVRLADECLMQAKYTGKNKVVVK”, which protein production is on record?
Answer: not failed

Question: Which protein production does the source give for “MSGDYRITLEELRYISVFHSITGVTAYRCIVDEENNRLIFLVSEGEAGRAIGRGGRLIKLLREALGKNIEVVEYSSDLERIVKNLFPGVKIESINVRERNGVKQVVIKVSEDDKGAAIGKGGKNVKRARLVLSKLFGVEKVVIR” here?
Answer: not failed

Question: Which protein production does the source give for “MSGEGDTTLKAICYKPGSLQLLDQRKLPLETIYLEIRDASDGWSAIQEMVVRGAPAIAIAAALSLAVEVFNFHGFDGSASDAVAFLENKLDYLVSSRPTAVNLADAALKLKHVIAKALATATEAKSIFKAYIEASEDMLEDDVVSNKAIGNFGLSLLRQQAKNPDKLSVLTHCNTGSLATAGYGTALGVIRALHTQGILERAYCTETRPFNQGSRLTAFELVHEKIPATLIADSAAAALMKDGRVDGVIVGADRVASNGDTANKIGTYSLALCAKHHGIPFYVAAPLTSVDLSLSSGKEIVIEERSPKELMHTHGGLGERIAAPGISVWNPAFDMTPAELIAGIITEKGVITKNGNDTFDISSFAKKITGNSSR” here?
Answer: failed

Question: With “MSGEKIDITPKKDGGVLKLIKKEGQGVVKPTTGTTVKVHYVGTLENGTKFDSSRDRGDQFSFNLGRGNVIKGWDLGVATMTKGEVAEFTIRSDYGYGDAGSPPKIPGGATLIFEVELFEWSAEDISPDRDGTILRTIIVEGSKNSFPNDTSKVLAHCVGTYQGTEFYNREVNFHIGEGSEEGLPEGVERALRRFQLGEKSKIEIRGHKYTYGNSPPAGSNIPVNATLEFTIFLKEFEKVPATWEMTAEEKLDAAKQAKDRGTMYLQKGNLKLAYNKYKRAEEVLEYEKSTDPEKMAERETILNGAYLNLSLVCSKQNEQLECIKWCDKVLETKPGNVKALYRKATALLTMNEVRDAMKLFEKIVEVEPENKAAAQQIIVCRNTIREQNERDKKRFKNLFAKISTEEDKPTNTVEDEDEIVASTSGSSTSNA” as the sequence, how does the protein production read?
Answer: not failed

Question: For “MSGFSMKRVSQMTALAMALGLACASSWAAELAKPLTLDQLQQQNGKAIDTRPSAFYNGWPQTLNGPSGHELAALNLSASWLDKMSTEQLNAWIKQHNLKTDAPVALYGNDKDVDAVKTRLQKAGLTHISILSDALSEPSRLQKLPHFEQLVYPQWLHDLQQGKEVTAKPAGDWKVIEAAWGAPKLYLISHIPGADYIDTNEVESEPLWNKVSDEQLKAMLAKHGIRHDTTVILYGRDVYAAARVAQIMLYAGVKDVRLLDGGWQTWSDAGLPVERGTPPKVKAEPDFGVKIPAQPQLMLDMEQARGLLHRQDASLVSIRSWPEFIGTTSGYSYIKPKGEIAGARWGHAGSDSTHMEDFHNPDGTMRSADDITAMWKAWNIKPEQQVSFYCGTGWRASETFMYARAMGWKNVSVYDGGWYEWSSDPKNPVATGERGPDSSK”, which protein production is on record?
Answer: failed

Question: Which protein production does the source give for “MSGGGVIRGPAGNNDCRIYVGNLPPDIRTKDIEDVFYKYGAIRDIDLKNRRGGPPFAFVEFEDPRDAEDAVYGRDGYDYDGYRLRVEFPRSGRGTG” here?
Answer: not failed

Question: With “MSGGLVALLDDVAALARIAAASVDDIAAGAAKAGAKAAGVVIDDAAVTPQYVSGADPSRELPMIKRIFWGSLRNKLLIILPALLLVSAFIPGVIPFILMLGGTYLCYEGAEKVWHKLRGHSATEKAPAVQRGPEAEAKVTKGAITTDFILSCEIMVIAMNEVADESLWVRALILVVVAFVITVVVYGAVGLIVKMDDIGLHLTTKASSGSQRFGRLLVKGMPAVLAAITLIGTIAMLWVGGHIMLQGAYDLGWHAPYDLVHVLETPFAGIPVAGGFLAWLVNTLCSAILGAVWGLVIMVILHPLLKVLPFGKKHEGHEEGDVRAAIAGYRPAKSKPTR” as the sequence, how does the protein production read?
Answer: failed

Question: For “MSGKRALITGIRGQDGAYLAKLLLEKGYEVYGADRRSGEFASWRLKELGIENDVKIIHMDLLEFSNIIRTIEKVQPDEVYNLAAQSFVGVSFEQPILTAEVDAIGVLRILEALRTVKPDTKFYQASTSEMFGKVQEIPQTEKTPFYPRSPYAVAKLFGHWITVNYREAYNMFACSGILFNHESPLRGIEFVTRKITYSLARIKYGLQDKLVLGNLNAKRDWGYAPEYVEAMWLMMQQPEPDDYVIATGETHTVREFVEKAAKIAGFDIEWVGEGINEKGIDRNTGKVIVEVSEEFFRPAEVDILVGNPEKAMKKLGWKPRTTFDELVEIMMEADLKRVRDREVSV”, which protein production is on record?
Answer: not failed

Question: With “MSGLRVYSTSVTGSREIKSQQSEVTRILDGKRIQYQLVDISQDNALRDEMRTLAGNPKATPPQIVNGNHYCGDYELFVEAVEQDTLQEFLKLA” as the sequence, how does the protein production read?
Answer: not failed

Question: With “MSGQADTATTAEARTPAHAAHHLVEGVARVLTKPRFRGWIHVYSAGTAVLAGASLVAVSWAVGSAKAGLTTLAYTAATITMFTVSATYHRVNWKSATARNWMKRADHSMIFVFIAGSYTPFALLALPAHDGRVVLSIVWGGAIAGILLKMCWPAAPRSVGVPLYLLLGWVAVWYTATILHNAGVTALVLLFVGGALYSIGGILYAVRWPDPWPTTFGYHEFFHACTAVAAICHYIAMWFVVF” as the sequence, how does the protein production read?
Answer: failed

Question: Which protein production does the source give for “MSGQPTAVDCLESSGSTVEDVQETPASREKSYGLPVRKGENSLESPAEQAAKDVEIEELTHSEAIAATGSTRKQCPYGGKAPDEPGKLADESEDRKGENTKAIASSPVLVAVDSDSSVELIESPVKFSSANESEKDPPKPDAVNEAAAKE” here?
Answer: failed
